Data as given in patent US20170165373A1 (Amgen, published 2017).

B1: 2A1 Covariance 4 (2A1_D84N + C107T) (antibody, human IgG1, lambda, V domains shown)
VH: EVQLVESGGGLVKPGRSLRLSCTASGFTFGDYALSWFRQAPGKGLEWVGVSRSKAYGGTTDYAASVKGRFTISRDNSKSFAYLQMNSLKTEDTAVYYCTSSGYSSGWTPFDYWGQGTLVTVSS
VL: not shown
B2: 2A1 Covariance 7 (2A1_S108K + C107T) (antibody, human IgG1, lambda, V domains shown)
VH: EVQLVESGGGLVKPGRSLRLSCTASGFTFGDYALSWFRQAPGKGLEWVGVSRSKAYGGTTDYAASVKGRFTISRDDSKSFAYLQMNSLKTEDTAVYYCTKSGYSSGWTPFDYWGQGTLVTVSS
VL: not shown
B3: 2A1 Covariance 6 (2A1_C107A) (antibody, human IgG1, lambda, V domains shown)
VH: EVQLVESGGGLVKPGRSLRLSCTASGFTFGDYALSWFRQAPGKGLEWVGVSRSKAYGGTTDYAASVKGRFTISRDDSKSFAYLQMNSLKTEDTAVYYCASSGYSSGWTPFDYWGQGTLVTVSS
VL: not shown
B4: 2A1 Covariance 5 (2A1_F88T + C107T) (antibody, human IgG1, lambda, V domains shown)
VH: EVQLVESGGGLVKPGRSLRLSCTASGFTFGDYALSWFRQAPGKGLEWVGVSRSKAYGGTTDYAASVKGRFTISRDDSKSTAYLQMNSLKTEDTAVYYCTSSGYSSGWTPFDYWGQGTLVTVSS
VL: not shown
B5: 2A1 Covariance 12 (2A1_T24A + F44V + F88T + C107T) (antibody, human IgG1, lambda, V domains shown)
VH: EVQLVESGGGLVKPGRSLRLSCAASGFTFGDYALSWVRQAPGKGLEWVGVSRSKAYGGTTDYAASVKGRFTISRDDSKSTAYLQMNSLKTEDTAVYYCTSSGYSSGWTPFDYWGQGTLVTVSS
VL: not shown
B6: 2A1 Covariance 11 (2A1_F44V + C107A + S108K) (antibody, human IgG1, lambda, V domains shown)
VH: EVQLVESGGGLVKPGRSLRLSCTASGFTFGDYALSWVRQAPGKGLEWVGVSRSKAYGGTTDYAASVKGRFTISRDDSKSFAYLQMNSLKTEDTAVYYCAKSGYSSGWTPFDYWGQGTLVTVSS
VL: not shown
B7: 2A1 Covariance 13 (2A1_F44V + F88T + C107A) (antibody, human IgG1, lambda, V domains shown)
VH: EVQLVESGGGLVKPGRSLRLSCTASGFTFGDYALSWVRQAPGKGLEWVGVSRSKAYGGTTDYAASVKGRFTISRDDSKSTAYLQMNSLKTEDTAVYYCASSGYSSGWTPFDYWGQGTLVTVSS
VL: not shown
B8: 2A1 Covariance 14 (2A1_T24A + F44V + F88T + C107A) (antibody, human IgG1, lambda, V domains shown)
VH: EVQLVESGGGLVKPGRSLRLSCAASGFTFGDYALSWVRQAPGKGLEWVGVSRSKAYGGTTDYAASVKGRFTISRDDSKSTAYLQMNSLKTEDTAVYYCASSGYSSGWTPFDYWGQGTLVTVSS
VL: not shown
B9: 32H3 (antibody, V domains shown)
VH: EVQLLESGGGLVQPGGSLRLSCAASGFTFSSYAMSWVRQAPGKGLKWVSAISGGAGNTYYADSVKGRFTISRDISKSTVYLQMTSLRAEDTAIYYCAKDGVGTTGGYFYYHGMDVWGQGTTVTVSS
VL: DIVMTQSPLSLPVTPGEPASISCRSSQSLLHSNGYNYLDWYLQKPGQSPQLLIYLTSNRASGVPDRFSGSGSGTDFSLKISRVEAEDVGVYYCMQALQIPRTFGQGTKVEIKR
notes: Tested as purified hybridoma IgG2 or IgG4; also called Ab-12; 32H3.1
B10: 30E1 (antibody, V domains shown)
VH: EVQLLESGGGLVQPGGSLRLSCAASGFTFSSHAMSWVRQAPGKGLEWVSAISGGDGNTYYADSVKGRFAISRDNSKNVVYLQMNSLRAEDTAVYFCAKDLVGVVAGYYYYFGMDVWGQGTTVTVSS
VL: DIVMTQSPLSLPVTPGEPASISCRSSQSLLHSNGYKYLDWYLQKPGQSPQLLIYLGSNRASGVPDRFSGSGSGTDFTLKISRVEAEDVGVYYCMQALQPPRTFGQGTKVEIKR
notes: Tested as purified hybridoma IgG2 or IgG4; also called Ab-9; 30E1.1
B11: 1E1-PEG4-Mal-DM4 (antibody drug conjugate) (other)
VH: QVQLVQSGAEVKKPGASVKVSCKASGYTFTGHYIHWVRQAPGQGLEWMGWIYPNSGGTNYAQKFQGRVTMTRDTSISTAYMELSRLRSDDSAVYYCAREGMVTGDYYYYRMDVWGQGTTVIVSS
VL: QPVLTQPPSASASLGASVTLTCSLSSGYSNYKVDWYQQRPGKGPRFVMRVGIGGIVGSKGDGIPDRFSVLGSGLNRYLTIKNIQEEDESDFHCGADHGSGNNFVYVFGTGTKVTVLG
modifications: antibody carries DM4 through the PEG4-Mal linker; sites not stated
B12: 1E1-MCC-DM1 (antibody drug conjugate) (other)
VH: QVQLVQSGAEVKKPGASVKVSCKASGYTFTGHYIHWVRQAPGQGLEWMGWIYPNSGGTNYAQKFQGRVTMTRDTSISTAYMELSRLRSDDSAVYYCAREGMVTGDYYYYRMDVWGQGTTVIVSS
VL: QPVLTQPPSASASLGASVTLTCSLSSGYSNYKVDWYQQRPGKGPRFVMRVGIGGIVGSKGDGIPDRFSVLGSGLNRYLTIKNIQEEDESDFHCGADHGSGNNFVYVFGTGTKVTVLG
modifications: antibody carries DM1 through the MCC linker; sites not stated
B13: 35D2 (antibody, V domains shown)
VH: EVQLLESGGALVQPGGSLRLSCAASGFTFSSYAMNWVRQAPGKGLEWVSAISVGGGTYYADSVKGRFTISRDNSKNTLYLHVNSLRAEDTAVYYCAKDQVTMVRGVWYYYGLDVWGQGTTVTVSS
VL: VIVLIQSPLSLPVTPGEPASISCRSSQSLLHSNGNNYLDWYLQKPGQSPHLLISLGSNRTSGVPDRFSGSGSGTDFTLKISRVEAEDVGFYYCMQALQPPRRFGQGTKLEIKR
notes: also called Ab-15; 35D2.1
B14: 32B5 (N69Q) (antibody, human IgG1, kappa, V domains shown)
VH: EVQLLESGGALVQPGGSLRLSCAASGFTFSSYAMNWVRQAPGKGLEWVSAISVGGDTYYADSVKGRFTISRDNSKNTLYLHVNSLSAEDSAVYYCAKDQVTLVRGVWYYYGLDVWGQGTTVTVSS
VL: VIVLIQSPLSLPVTPGEPASISCRSSQSLLHSNGNNYLDWYLQKPGQSPHLLISLGSQRTSGVPDRFSGSGSGTDFTLKISRVEAEDVGFYYCMQALQPPRRFGQGTKLEIKR
notes: also called 32B5 (LC: N69Q); P70169.3
B15: 33C7 (antibody, V domains shown)
VH: EVQLLESGGALVQPGGSLRLSCAASGFTFSSYAMNWVRQAPGKGLEWVSAISVGGDTYYADSVKGRFTISRDNSKNTLYLHVNSLSAEDSAVYYCAKDQVTLVRGVWYYYGLDVWGQGTTVTVSS
VL: VIVLIQSPLSLPVTPGEPASISCRSSQSLLHSNGNNYLDWYLQKPGQSPHLLISLGSNRTSGVPDRFSGSGSGTDFTLKISRVEAEDVGFYYCMQALQPPRRFGQGTKLEIKR
notes: Tested as purified hybridoma IgG2 or IgG4; also called Ab-11; 33C7_HC#1
B16: 37B2 (antibody, V domains shown)
VH: EVQLLESGGALVQPGGSLRLSCAASGFTFSNYAMNWVRQAPGKGLEWVSAISVGGDTYYADSVKGRFTISRDNSKNTLYLHVNSLSAEDSAVYYCAKDQVTLVRGVWYYYGLDVWGQGTTVTVSS
VL: VIVLIQSPLSLPVTPGEPASISCRSSQSLLHSNGNNYLDWYLQKPGQSPHLLISLGSNRTSGVPDRFSGSGSGTDFTLKISRVEAEDVGFYYCMQALQPPRRFGQGTKLEIKR
notes: Tested as purified hybridoma IgG2 or IgG4; also called Ab-16; 37B2.1
B17: 29C12 (antibody, V domains shown)
VH: EVQLLESGGALVQPGGSLRLSCAASGFTFSSYAMNWVRQAPGKGLEWVSAISVGGDTYYADSVKGRFTISRDNSKNTLYLQMNSLRAEDTAVYYCAKDQVTMVRGVWYYYGLDVWGQGTTVTVSS
VL: DIVMIQSPLSLPVTPGEPASISCRSSQSLLHSNGNNYLDWYLQKPGQSPHLLISLGSNRTSGVPDRFSGSGSGTDFTLKISRVEAEDVGVYYCMQALQPPRRFGQGTKLEIKR
notes: also called Ab-8; 29C12.1
B18: 32B5 (T71A) (antibody, human IgG1, kappa, V domains shown)
VH: EVQLLESGGALVQPGGSLRLSCAASGFTFSSYAMNWVRQAPGKGLEWVSAISVGGDTYYADSVKGRFTISRDNSKNTLYLHVNSLSAEDSAVYYCAKDQVTLVRGVWYYYGLDVWGQGTTVTVSS
VL: VIVLIQSPLSLPVTPGEPASISCRSSQSLLHSNGNNYLDWYLQKPGQSPHLLISLGSNRASGVPDRFSGSGSGTDFTLKISRVEAEDVGFYYCMQALQPPRRFGQGTKLEIKR
notes: also called 32B5 (LC: T71A); P70170.3

Key:
[1] = molecular target: T1, human BCMA (huBCMA), full length, on cells (human, UniProt Q02223 1-184); experiment: cell-based or functional assay
T1 chain: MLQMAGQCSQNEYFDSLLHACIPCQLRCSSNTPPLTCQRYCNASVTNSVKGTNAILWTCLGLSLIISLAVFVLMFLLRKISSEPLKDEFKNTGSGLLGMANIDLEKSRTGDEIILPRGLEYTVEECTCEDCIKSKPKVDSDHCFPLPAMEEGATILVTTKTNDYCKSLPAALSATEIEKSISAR

[2] = molecular target: T2, cynomolgus BCMA, on transiently transfected 293T cells (cynomolgus (Macaca fascicularis), UniProt Q02223 1-184 (human entry)); experiment: FACS O/N
T2 construct: also called cyno BCMA
T2 sequence (Q02223 other isoform, or with tags, fused parts or gaps): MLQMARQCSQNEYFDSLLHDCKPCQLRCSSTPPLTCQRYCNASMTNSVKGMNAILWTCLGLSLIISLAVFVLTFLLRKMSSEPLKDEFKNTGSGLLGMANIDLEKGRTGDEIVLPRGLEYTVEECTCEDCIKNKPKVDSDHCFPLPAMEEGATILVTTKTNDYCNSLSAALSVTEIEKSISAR

[3] = molecular target: T2, cynomolgus BCMA, on transiently …; experiment: FACS
[4] = molecular target: T1, human BCMA (huBCMA), full length, on …; experiment: FACS
[5] = molecular target: T3, TACI, full length, on transiently transfected cells (human, UniProt O14836 1-293); experiment: FACS
T3 construct: whole, on cells; also called huTACI
T3 sequence (looked up): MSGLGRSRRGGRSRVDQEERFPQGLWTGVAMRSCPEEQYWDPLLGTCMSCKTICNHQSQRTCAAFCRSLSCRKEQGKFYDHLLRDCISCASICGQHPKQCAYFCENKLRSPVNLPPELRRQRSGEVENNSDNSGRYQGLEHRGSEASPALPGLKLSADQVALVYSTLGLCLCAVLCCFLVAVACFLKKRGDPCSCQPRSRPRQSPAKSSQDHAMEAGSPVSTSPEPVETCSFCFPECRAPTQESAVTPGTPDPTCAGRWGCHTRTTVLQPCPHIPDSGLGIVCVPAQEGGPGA

[6] = molecular target: T1, human BCMA (huBCMA), full length, on …; experiment: APRIL blocking FACS; design: concentration or dose not given beside the values
[7] = molecular target: T1, human BCMA (huBCMA), full length, on …; experiment: cell-based or functional assay
[8] = molecular target: T1, human BCMA (huBCMA), full length, on …; experiment: FACS, H929 cells

| Binder | ADCC EC50 [1] | MFI [2] | MFI [3] | MFI [4] | MFI [5] | binding result [5] | % Inhibition n=1 [6] | % Inhibition n=2 [6] | Avg. % Inhibition [6] | other results |
| --- | --- | --- | --- | --- | --- | --- | --- | --- | --- | --- |
| B1 | 0.028 µg/mL | – | – | – | – | – | – | – | – | – |
| B2 | 0.0191 µg/mL | – | – | – | – | – | – | – | – | – |
| B3 | 0.0169 µg/mL | – | – | – | – | – | – | – | – | – |
| B4 | 0.016 µg/mL | – | – | – | – | – | – | – | – | – |
| B5 | 0.111 µg/mL | – | – | – | – | – | – | – | – | – |
| B6 | 0.364 µg/mL | – | – | – | – | – | – | – | – | – |
| B7 | 0.0327 µg/mL | – | – | – | – | – | – | – | – | – |
| B8 | 0.0417 µg/mL | – | – | – | – | – | – | – | – | – |
| B9 | – | 122 | 51200 | 97700 | 1360 | no binding | 20% | 47% | 33% | – |
| B10 | – | 130 | 78500 | 109000 | 555 | no binding | 31% | 46% | 38% | – |
| B11 | – | – | – | – | – | – | – | – | – | cell viability IC50 (CellTiter-Glo, 96 h), H929 cells [7]: 0.68 nM |
| B12 | – | – | – | – | – | – | – | – | – | cell viability IC50 (CellTiter-Glo, 96 h), H929 cells [7]: 0.63 nM |
| B13 | – | 152 | 198000 | 129000 | 506 | no binding | 57% | 82% | 70% | – |
| B14 | – | – | – | – | – | – | – | – | – | binding result [8]: binds |
| B15 | – | 109 | 238000 | 132000 | 1890 | no binding | 68% | 88% | 78% | – |
| B16 | – | 104 | 136000 | 83700 | 1040 | no binding | 37% | 58% | 48% | – |
| B17 | – | 110 | 97300 | 82600 | 256 | no binding | 30% | 62% | 46% | – |
| B18 | – | – | – | – | – | – | – | – | – | binding result [8]: binds |
